# Experimental data from patent publication US20090062150A1 (published 2009).
# B1: N-terminally truncated GlpG transmembrane core domain (residues 87-276), E. coli rhomboid protease (enzyme)
# chain: AALRERAGPVTWVMMIACVVVFIAMQILGDQEVMLWLAWPFDPTLKFEFWRYFTHALMHFSLMHILFNLLWWWYLGGAVEKRLGSGKLIVITLISALLSGYVQQKFSGPWFGGLSGVVYALMGYVWLRGERDPQSGIYLQRGLIIFALIWIVAGWFDLFGMSMANGAHIAGLAVGLAMAFVDSLNARKRK
# notes: range 87-276; also called GlpG core; truncated GlpG core domain
# Target: T1, 7-mer (AGAIAGG) derived from Toxoplasma gondii micronemal proteins (MIC2) (Toxoplasma gondii)
# T1 construct: also called MIC2 peptide; MC2
# Assay: crystal soak, X-ray structure
binder,measurement,value
B1,binding result,binds
